Measurements taken from patent US20260275319.

What was measured:
[1] = molecular target: T1, PGA(10) peptide, M. jannaschii MtrA-derived
T1 chain: PGAIDEDPFIIEL

[2] = molecular target: T2, (15)KDPGA(10F) peptide, M. jannaschii MtrA-derived
T2 chain: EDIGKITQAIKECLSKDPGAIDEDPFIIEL

[3] = molecular target: T3, (5)KDPGA(10F) peptide, M. mazei MtrA-derived
T3 chain: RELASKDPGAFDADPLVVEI

[4] = molecular target: T4, PGA(5) peptide, M. mazei MtrA-derived
T4 chain: PGAFDADP

[5] = molecular target: T5, PGA(10F) peptide, M. jannaschii MtrA-derived
T5 chain: PGAIDEDPFIIEL

[6] = molecular target: T6, M. mazei Ub-(5)KDPGA(15) with N-terminal His-tag
T6 chain: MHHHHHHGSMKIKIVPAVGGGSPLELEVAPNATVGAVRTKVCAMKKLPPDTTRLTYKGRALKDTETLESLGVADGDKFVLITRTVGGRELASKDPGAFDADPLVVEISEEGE

[7] = molecular target: T7, (0)KDPGA(10) peptide, M. mazei MtrA-derived
T7 chain: KDPGAFDADPLVVEI

[8] = molecular target: T8, M. mazei PGA(15)-Ub with C-terminal His-tag
T8 chain: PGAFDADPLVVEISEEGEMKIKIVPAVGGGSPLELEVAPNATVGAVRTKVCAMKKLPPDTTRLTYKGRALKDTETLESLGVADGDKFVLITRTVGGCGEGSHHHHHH

[9] = molecular target: T9, PGA(10) peptide, M. mazei MtrA-derived
T9 chain: PGAFDADPLVVEI

[10] = molecular target: T10, (15)KDPGA(10) peptide, M. jannaschii MtrA-derived, without fluorophore
T10 chain: T2 chain

B1: M. jannaschii Adriase with C-terminal His-tag (protein)
chain: SLIICYYGKNGAVIGGDRRQIFFRGSEENRKILEEKLYSGEIKSEEELYKLAEKLNIKIIIEDDREKVRKISDSVVCGEVRSLGIDAKRRRVYATKGKCAIVDILNDTVTNQTIKEGFGIVVLGNRFLKKKAEEELKRTAKLFPMMPIQQIEDAIKEIFEKLKWHPTVSKEYDIYSVNKYEKNFEEVIKKDIESLFKYREQLRKQLIDFGKVMSIVNKIVKNGEIGVIKDGKLHLYDDYIAIDKIDPNPKVFKVVDVEGNFKDGDIVVIENGDMKIKGTNEKVTTKYIIIHKGSHHHHHH
Q: B1 was tested. Which “maximum ligation rate, recombination of (15)KDPGA(10F) with PGA(10), Michaelis-Menten fit” value [1] did it give?
A: Its value is “maximum rate of ~1.4 ligations per enzyme and second”.

Q: And the “substrate concentration at half maximal reaction speed, recombination of (15)KDPGA(10F) with PGA(10)” value [1]?
A: The value was “The half maximal reaction speed is observed at a substrate concentration of 23 µM each”.

Q: What about the “maximum ligation rate, recombination of (15)KDPGA(10F) with PGA(10), Michaelis-Menten fit” value [2] of the same protein?
A: Its value is “maximum rate of ~1.4 ligations per enzyme and second”.

Q: What about the “substrate concentration at half maximal reaction speed, recombination of (15)KDPGA(10F) with PGA(10)” value [2] of the same protein?
A: Its value is “The half maximal reaction speed is observed at a substrate concentration of 23 µM each”.

B2: M. mazei Adriase with C-terminal His-tag (protein)
chain: TLVIAFIGKNGAVMAGDMREITFEGEKPDREKLEKELYSGSIVTDEEMQKKAEEFGVKITVADCKEKVSERNGVLVGEVSSAEGGVVKKRRLYASAGNFAIAELINTEMTLTSQGKGSNFIAFGNEFTKQVANKCFKDNWTKKSNLQDAVKILILCMETVARKTASVSKQFMIVQTASNADVLKVVEKDRNCGSHHHHHH
Q: B2 was tested. Which “maximum ligation rate, ligation of (5)KDPGA(10F) with PGA(10), Michaelis-Menten fit” value [3] did it give?
A: Its value is “a maximum rate of ~2.25 ligations per enzyme and second”.

Q: And the “substrate concentration at half maximal reaction speed, ligation of (5)KDPGA(10F) with PGA(10)” value [3]?
A: The value was “The half maximal reaction speed is observed at a substrate concentration of ~9 µM each”.

Q: And the “ligase activity with PGA(5) as secondary and Ub-(5)KDPGA(15) as primary substrate, SDS-PAGE time course” value [4]?
A: Its value is “No Adriase activity was observed with (0)KDPGA(10) or PGA(5) substrates (n.d.; SEQ ID NO: 531 and 529)”.

Q: And the “ligase activity with M. jannaschii (15)KDPGA(10) and PGA(10F) peptides, fluorescent product on SDS-PAGE” value [5]?
A: The value was “also M. mazei Adriase showed activity when incubated with the M. jannaschii derived peptides”.

Q: What about the “ligation rate coefficient at 25 µM substrate, ligation of Ub-(5)KDPGA(15) with PGA(15)-Ub” value [6] of the same protein?
A: Its value is 0.74±0.05 sec^-1 at 25 µM.

Q: And the “ligation rate coefficient at 50 µM substrate, ligation of Ub-(5)KDPGA(15) with PGA(15)-Ub” value [6]?
A: Its value is 0.88±0.07 sec^-1 at 50 µM.

Q: And the “ligation rate coefficient at 100 µM substrate, ligation of Ub-(5)KDPGA(15) with PGA(15)-Ub” value [6]?
A: Its value is 0.90±0.14 sec^-1 at 100 µM substrate concentration.

Q: And the “maximum rate of the protein-protein ligation of Ub-(5)KDPGA(15) with PGA(15)-Ub” value [6]?
A: The value was “a maximum rate of 0.92 ligations per enzyme and second”.

Q: What about the “substrate concentration at the half-maximum rate, ligation of Ub-(5)KDPGA(15) with PGA(15)-Ub” value [6] of the same protein?
A: Its value is “the half-maximum rate is observed at a substrate concentration of 2.2 µM each”.

Q: What about the “ligase activity with (0)KDPGA(10) as primary and PGA(15)-Ub as secondary substrate, SDS-PAGE time course” value [7] of the same protein?
A: Its value is “No Adriase activity was observed with (0)KDPGA(10) or PGA(5) substrates (n.d.; SEQ ID NO: 531 and 529)”.

Q: And the “ligation rate coefficient at 25 µM substrate, ligation of Ub-(5)KDPGA(15) with PGA(15)-Ub” value [8]?
A: Its value is 0.74±0.05 sec^-1 at 25 µM.

Q: And the “ligation rate coefficient at 50 µM substrate, ligation of Ub-(5)KDPGA(15) with PGA(15)-Ub” value [8]?
A: The value was 0.88±0.07 sec^-1 at 50 µM.

Q: And the “ligation rate coefficient at 100 µM substrate, ligation of Ub-(5)KDPGA(15) with PGA(15)-Ub” value [8]?
A: The value was 0.90±0.14 sec^-1 at 100 µM substrate concentration.

Q: And the “maximum rate of the protein-protein ligation of Ub-(5)KDPGA(15) with PGA(15)-Ub” value [8]?
A: The value was “a maximum rate of 0.92 ligations per enzyme and second”.

Q: What about the “substrate concentration at the half-maximum rate, ligation of Ub-(5)KDPGA(15) with PGA(15)-Ub” value [8] of the same protein?
A: Its value is “the half-maximum rate is observed at a substrate concentration of 2.2 µM each”.

Q: And the “maximum ligation rate, ligation of (5)KDPGA(10F) with PGA(10), Michaelis-Menten fit” value [9]?
A: Its value is “a maximum rate of ~2.25 ligations per enzyme and second”.

Q: And the “substrate concentration at half maximal reaction speed, ligation of (5)KDPGA(10F) with PGA(10)” value [9]?
A: Its value is “The half maximal reaction speed is observed at a substrate concentration of ~9 µM each”.

Q: And the “ligase activity with M. jannaschii (15)KDPGA(10) and PGA(10F) peptides, fluorescent product on SDS-PAGE” value [10]?
A: Its value is “also M. mazei Adriase showed activity when incubated with the M. jannaschii derived peptides”.
